Test results as given in publication PMC5133854.

Assays:
[1] = target: purified porcine gastric mucin (pPGM) (porcine); assay: AFM single-molecule force spectroscopy; Gal-3 covalently attached to the AFM tip, pPGM covalently attached to the glass slide; PBS pH 7.4; force-volume mode
[2] = target: purified porcine gastric mucin (pPGM) (porcine); assay: AFM single-molecule force spectroscopy; MUB covalently attached to the AFM tip, pPGM covalently attached to the glass slide; PBS pH 7.4; force-volume mode, 2 um/s, 1024 force-distance curves; repeated on the same region after adding free sugars or anti-Mub antibody (0.05 mg/mL)
[3] = target: mucus-binding protein (MUB) from Lactobacillus reuteri ATCC 53608 (Lactobacillus reuteri ATCC 53608) (UniProt Q9RGN5); assay: AFM single-molecule force spectroscopy; MUB covalently attached to both the AFM tip and the glass slide; PBS pH 7.4; force-volume mode; repeated after adding free MUB (0.05 mg/mL) or anti-Mub antibody (0.05 mg/mL)
[4] = tested on: Q9RGN5; assay: as above; settings: other: AFM single-molecule force spectroscopy

Substance: Galectin-3 (Gal-3) (from UniProt P17931 1-250) (natural protein)
- binding energy [1]: 0.79 aJ
- energy (integration of the adhesive peaks) [1]: 3.08 aJ

Substance: mucus-binding protein (MUB) from Lactobacillus reuteri ATCC 53608 (from UniProt Q9RGN5 1-3269) (natural protein)
- modal value of the rupture adhesion force [2]: 380 pN
- modal value of the rupture adhesion force (PBS, before the antibody) [2]: 482 pN
- modal value of the rupture adhesion force [3]: 209 pN

Substance: mucus-binding protein (MUB) from Lactobacillus reuteri ATCC 53608
- percent of force curves with unfolding events [4]: the numbers of unfolding events in the force volume maps were 71% of the 1024 force curves
